Reference: the DeepSol protein solubility set

Experiment: soluble on expression in E. coli; label from the status in PepcDB or PDB records

Soluble on expression in E. coli, soluble:
MAHHHHHHMLSSISPKRYSFDKQGNIKEIDFLSCKSVILPEQHLNAKDNFICTTSILPNFYETPPDKASKLKMTQENNIDKANMGTNVYVQRTSSLSNMNVLQYADEVHNNLQDSNVHEINEPLIFADVNQYCGDANTQGIDPGVVAVSNALFAYNSAFQSIPIKSSPNVFKRRSKGEANSEWSNAFVTRVDPYECTDPEEEFKPYEVTKYYDEGKVKTVFNFDQENYNQDM

Soluble on expression in E. coli, not soluble:
MSGRLIGKVALVSGGARGMGASHVRAMVAEGAKVVFGDILDEEGKAVAAELADAARYVHLDVTQPAQWTAAVDTAVTAFGGLHVLVNNAGILNIGTIEDYALTEWQRILDVNLTGVFLGIRAVVKPMKEAGRGSIINISSIEGLAGTVACHGYTATKFAVRGLTKSTALELGPSGIRVNSIHPGLVKTPMTDWVPEDIFQTALGRAAEPVEVSNLVVYLASDESSYSTGAEFVVDGGTVAGLAHNDFGAVEVSSQPEWVT
MGSDKIHHHHHHMVVDGPRDPRMNMAIDEAILRVGAAPTLRIYMWLPGGLTLGRRQSVEDVNLAEAEKRGYVLVRRPTGGAALLHPWEREITYSLVLDSRHPYYSLDVAESAATIAGGVALALEELGIATRVGGYTPPPGVIGGLCYVRPGSSDVVVAGRKVSGSAQRRIGGRLLQHGTLLLRFDPEEWLSIIPVKGAGPSDLASRIAGIEDLAGRSYSFSEVADALVKGFSKALGLEPEPSGLEGREVEEALRLYRKKYSSPRWNLEGDEP
MEDIWPTIERTTISASVPEAPANFDEKPPFNRTINVYPLTNYTFGTKDAQAEKDKSVPERFKRMKDEYEVMGMRRSVEAVLIVHEHSLPHILLLQIGTTFYKLPGGELELGEDEISGVTRLLNETLGRTDGETNEWTIEDEIGNWWRPNFDPPRYPYIPAHVTKPKEHTKLLLVQLPSKSTFCVPKNFKLVAAPLFELYDNAAAYGPLISSLPTTLSRFNFIFNDSN
MLGVLKKVFDPNKRQLARLEKIADQVDALGPEMARLSDEQLRQKTEEFKARYQQGESLDDLLVEAFAVVREGAKRVLGLYPYKVQIMGGVVLHEGDIAEMKTGEGKTLTATMPVYLNALTGRGVHVVTVNEYLATRDATEMGKLYEFLGMTVGLNLSGMSREEKQAAYNADITYGTNNEFGFDYLRDNMVLYKEHIVQRPLYYAIIDEVDSILIDEARTPLIISGTAQKSTKLYVQANAFVRTLRKDVDYTYDEKTKSVQLTEEGINKAERAFGIDNLFDLKHVTLNHHIQLALRAHVTMQRDVDYVVQDGKVIIVDPFTGRLMHGRRYSDGLHQAIEAKEGLEIQNESMTLATITFQNYFRMYEKLAGMTGTAKTEEEEFRNIYNMRVVVIPTNRPVIREDRPDLIYRTMEGKFRAVVEDIAARHAKGQPVLVGTVAIETSEMLSEMLKKRGIPHNVLNAKNHAKEAEIIAQAGQKGAVTIATNMAGRGTDIKLGEGVKELGGLAVIGTERHESRRIDNQLRGRSGRQGDPGVSQFYLSLEDELMRRFGSESLMAMMDRLGMDDSQPIQSKMVTKAVESAQKRVEGNNFDARKQLLQYDDVLREQREIIYRQRYEVLDSDNLRGIIEKMIQSVIERVVNAHTPKEEVPEEWNLKGLVEYLNAHLLPEGDVTEADLRGKEPEEMIELIWAKVKARYDEKEAQIPPEQMREFERVVVLRAVDMKWMNHIDAMEQLRQGIHLRAYGQVDPLREYQMEGYAMFEEMIAAIEEEVATYIMKAEIHHNLERQEVAKGEAVHPKEDGEEPKRKPVRKAVRVGRNDPCPCGSGKKYKHCCGRTV
MSLKPGTLISMMTEEEANSITHLTLTGKLNAEDFRHLRDEFPSLKVLDISNAEIKMYSGKAGTYPNGKFYIYMANFVPAYAFSNVVNGVTKGKQTLEKVILSEKIKNIEDAAFKGCDNLKICQIRKKTAPNLLPEALADSVTAIFIPLGSSDAYRFKNRWEHFAFIEGEPLETTIQVGAMGKLEDEIMKAGLQPRDINFLTIEGKLDNADFKLIRDYMPNLVSLDISKTNATTIPDFTFAQKKYLLKIKLPHNLKTIGQRVFSNCGRLAGTLELPASVTAIEFGAFMGCDNLRYVLATGDKITTLGDELFGNGVPSKLIYKEGHHHHHH
WGTIPGQNFIYAHLNRVIKKYDLDMIYVSGPGHGGQVMVSNSYLDGTYSEVYPNVSRDLNGLKKLCKQFSFPGGISSHMAPETPGSINEGGELGYSLAHSFGAVFDNPDLITACVVGDGEAETGPLATSWQANKFLNPVTDGAVLPILHLNGYKISNPTVLSRIPKDELEKFFEGNGWKPYFVEGEDPETMHKLMAETLDIVTEEILNIQKNARENNDCSRPKWPMIVLRTPKGWTGPKFVDGVPNEGSFRAHQVPLAVDRYHTENLDQLEEWLKSYKPEELFDENYRLIPELEELTPKGNKRMAANLH
